To fix the notation:
B1: MBP-tagged PX domain of SNX5 (MBP-PX-SNX5) (domain or fragment, human, UniProt Q9Y5X3 25-172, looked up)
chain: LNVDPSLQIDIPDALSERDKVKFTVHTKTTLPTFQSPEFSVTRQHEDFVWLHDTLIETTDYAGLIIPPAPTKPDFDGPREKMQKLGEGEGSMTKEEFAKMKQELEAEYLAVFKKTVSSHEVFLQRLSSHPVLSKDRNFHVFLEYDQDL
notes: Phox homology (PX) domain of human sorting nexin 5; Cloned in pMAL-p4X; also called PX-SNX5-WT; source: E. coli BL21 (DE3), purified (amylose resin, SEC)

Common to all, as to settings: both partners purified
Experiment [1] addresses T1, GST-tagged NCOA7-AS (NCOA7-AS-WT-GST) (human, UniProt Q8NI08-5 1-219).
T1 construct: numbers count on: NCOA7-AS; Modified pET-30: MCS, TEV cleavage site, GST, His6; no cleavage is described for the GST-tagged proteins; also called GST-tagged-NCOA7-AS-WT; source: E. coli BL21 (DE3), purified (Ni-NTA, SEC); not shown: GST, C-terminal, kept
T1 sequence (looked up): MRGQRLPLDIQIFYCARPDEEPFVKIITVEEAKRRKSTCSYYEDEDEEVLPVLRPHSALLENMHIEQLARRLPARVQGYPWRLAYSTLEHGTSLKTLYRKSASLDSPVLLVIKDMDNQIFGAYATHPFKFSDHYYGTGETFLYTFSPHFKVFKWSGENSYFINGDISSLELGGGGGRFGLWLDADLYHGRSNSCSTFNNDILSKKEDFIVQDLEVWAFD
The experiment is described as follows: pull-down; GST-tagged proteins (14-35 μg) on glutathione agarose beads, 85 μg MBP-tagged protein, 2 h at 4 °C; 50 mM Tris-HCl pH 8, 600 mM NaCl, 5 mM β-mercaptoethanol, 10% glycerol; Western blot (GST, MBP).

For experiment [2], the target named is T2, GST-tagged NCOA7-AS-Y14F (human, UniProt Q8NI08-5 1-219, Y14F).
T2 construct: source: E. coli BL21 (DE3), purified (Ni-NTA, SEC); not shown: GST, C-terminal, kept
T2 sequence (looked up): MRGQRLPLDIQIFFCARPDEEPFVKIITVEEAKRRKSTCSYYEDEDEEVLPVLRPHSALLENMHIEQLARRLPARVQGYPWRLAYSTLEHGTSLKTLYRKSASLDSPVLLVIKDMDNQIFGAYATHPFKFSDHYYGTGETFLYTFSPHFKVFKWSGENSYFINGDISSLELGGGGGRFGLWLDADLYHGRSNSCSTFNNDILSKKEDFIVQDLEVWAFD
The experiment is described as above.

Experiment [3] concerns the target B1. The experiment is described as follows: microfluidic diffusional sizing; 57 nM FITC peptide tracked, MBP-PX-SNX5 proteins titrated 0.38-250 μM in PBS-10% glycerol; Fluidity One-W; hydrodynamic radius; one-site specific binding fit; apparent Kd.
Experiment [4] addresses T3, MBP-tagged PX domain of SNX5 with F136A (MBP-PX-SNX5-F136A) (human, UniProt Q9Y5X3 25-172, F136A).
T3 construct: Phox homology (PX) domain of human sorting nexin 5; pMAL-PX-SNX5-F136A by site-directed mutagenesis; also called F136A mutant; source: E. coli BL21 (DE3), purified (amylose resin, SEC)
T3 sequence (looked up): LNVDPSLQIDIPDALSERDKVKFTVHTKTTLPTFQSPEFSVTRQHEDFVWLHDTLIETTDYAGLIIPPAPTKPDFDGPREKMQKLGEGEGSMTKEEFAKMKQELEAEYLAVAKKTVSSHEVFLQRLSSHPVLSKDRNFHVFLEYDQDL
Described as above.

Experiment [5] deals with B1. The experiment in a line: pull-down; GST-tagged proteins (14-35 μg) on glutathione agarose beads, 85 μg MBP-tagged protein, 2 h at 4 °C; 50 mM Tris-HCl pH 8, 600 mM NaCl, 5 mM β-mercaptoethanol, 10% glycerol; Western blot (GST, MBP).

Where no end group is shown, it is not given here.

For the molecule B1, the binding result in experiment [1] and in experiment [2] was “binds” in each case.

B2: FITC conjugated NCOA7-AS peptide (NCOA7-AS-NTD-FITC) (peptide)
peptide: RLPLDIQIFYCARPDEEPFVKIITVEEAKRR
modifications: also: FITC conjugated, position not given here
notes: numbers count on: NCOA7-AS; Printed as NH2-...-COOH; Limits worked out from Tyr14, Gln11, Glu21 and Val24 as numbered in the structure; also called fluorescently labeled NCOA7-AS-NTD
Turning to B2, the Kd in experiment [3] was found to be 1400 nM; in experiment [4], 13.4 µM.

B3: GST-tagged NCOA7-AS N-terminal domain (NCOA7-AS-NTD-GST) (domain or fragment, human, UniProt Q8NI08-5 1-53, looked up)
chain: MRGQRLPLDIQIFYCARPDEEPFVKIITVEEAKRRKSTCSYYEDEDEEVLPVL
notes: numbers count on: NCOA7-AS; source: E. coli BL21 (DE3), purified (Ni-NTA, SEC); not shown: GST, C-terminal, kept
In the case of B3, the binding result in experiment [5] is on record as “binds”.

These data come from paper PMC13543948, “SNX-BAR proteins 5 and 6 are required for NCOA7-AS antiviral activity against influenza A virus” (The Journal of Biological Chemistry, 2026).
